Data reported in patent US20250215467A1, “L-THREONINE TRANSALDOLASES AND USES THEREOF” (University of Delaware, priority 2022, published 2025).
Read-outs that look alike come from different tables or passages of the source.

B1: ObiH: known L-threonine transaldolase of obafluorin biosynthesis, SEQ ID NO: 30, Pseudomonas fluorescens, ARJ35753.1 (protein)
chain: MSNVKQQTAQIVDWLSSTLGKDHQYREDSLSLTANENYPSALVRLTSGSTAGAFYHCSFPFEVPAGEWHFPEPGHMNAIADQVRDLGKTLIGAQAFDWRPNGGSTAEQALMLAACKPGEGFVHFAHRDGGHFALESLAQKMGIEIFHLPVNPTSLLIDVAKLDEMVRRNPHIRIVILDQSFKLRWQPLAEIRSVLPDSCTLTYDMSHDGGLIMGGVFDSPLSCGADIVHGNTHKTIPGPQKGYIGFKSAQHPLLVDTSLWVCPHLQSNCHAEQLPPMWVAFKEMELFGRDYAAQIVSNAKTLARHLHELGLDVTGESFGFTQTHQVHFAVGDLQKALDLCVNSLHAGGIRSTNIEIPGKPGVHGIRLGVQAMTRRGMKEKDFEVVARFIADLYFKKTEPAKVAQQIKEFLQAFPLAPLAYSFDNYLDEELLAAVYQGAQR
modifications: Psuedomonas fluorescenes
B2: CsTTA: TTA, SEQ ID NO: 33, Chitiniphilus shinanonensis (protein, listed as Chitiniphilus shinanonensis)
chain: MTRTTPQARHVVERLNSVLGQDYRYREDCLSLTANENYPSALVRLAGSATAGAFYHCSFPFEVPPGEWYFPESGRMGELAQQLNELGRSLLGAGTFDWRPNGGSPAEQALMLAACKHGEGMVHFAHRDGGHFALENLAQKAGIDIFHLPVDPQTLLIDVARLDELVRRNPQIRIVILDQSFKLRWQPLAAIRKVLPPSCTLTYDTSHDGGLIMGGVFDSPLHCGADVIHGNTHKTVPGPQKGYIAFKSAEHPLLVDTSLWLCPHLQSNCHAELLPPMWVAFKEMEAFGHDYAPQVARNAKALAGHLHRLGFEVSGEAFGFTETHQVHFAVGDLQQALDLCMNTLHRGGIRSTNIEIPGKPGIQGIRLGVQAMTRRGLREDDFEQVARFIADLHFRKADPAGVAAQVAEFLRAFPLAPLHYSFDQELDHELLQSLIGEALR
B3: KaTTA: L-threonine transaldolase, SEQ ID NO: 1, Kitasatospora aureofaciens, WP_033354341 (protein, listed as Kitasatospora aureofaciens)
chain: MDVLAALERKHSLNLFPIENRLSPRAAAALASDAVNRYPYSETDVAVYGDVSDLNAVYDHCVSLTKEFYGARHAYVQFLSGLHTMHTVLTAVTPPGGRVMVIAPEDGGHYATVTICQGFGYRVEYVPFDRQTLEIDYTALAERTAEHPADVIYLDASTVLRMPDARALRAAAPGAVLCLDASHLLGLLPAAPGTLVLDAGFDSISGSTHKTLPGPQKGLLVTNSDAIAEQVGARIPFTASSSHSASVGSLAITLEELLPHRGDYARQVIANARELARQLAARGFDVAGEAFGFTDTHQVWVHHPEGNTPHEWGRLLTATDIRTTTVVLPSTARSGLRLGTQELTRWGMKEDDMTTVAELLARLLLRGEQSRSVAADVRDLARSFPGVAFADRPAPLAVA
B4: PiTTA: TTA, SEQ ID NO: 31, Pseudomonas sp. Irchel s3a18 (protein)
chain: MKQDESNVGPVIDWLAQTLGQDYKYRQDTLSLTANENYPSELVRLTSGSTAGAFYHCSFPFPVPLGEWHFPEPGQMNEIADDLRGLAKRMMGAQAFDWRPNGGSPAEQALMLAACKQGEGFVHFAHRDGGHFALEQLATKMGIEIFHLPVDPQSLLIDVAKLDDMVRRNPHIRIVILDQSFKLRWQPLAEIRAILPDSCTLTYDMSHDGGLILGGVFDSPLACGADIAHGNTHKTIPGPQKGFIAFKSAQHPLLVETSLWVCPHLQSNCHAELLPSMWAAFKEMEAFGPAYAHQMVRNAKALANQLHELGLNVSGESFGFTETHQVHFAVGDLQQALSMCVDSLHAGGIRSTNIEIPGKPGMHGIRLGVQAMTRRGMKEDDFRRVAGLIADLYFKRTEPARVASKVKELLGDFPLAPLAYSFDQQIDESRRRLLERGIQR
modifications: Pseudomonas_sp._Irchel_s3a18
notes: Irchel s3a18
B5: BuTTA: TTA, SEQ ID NO: 34, Burkholderia ubonensis (protein, listed as Burkholderia ubonensis)
chain: MTDFAQAVVNPFVDEQRKSRLVEKISNIFDSLHSDFALDNLYRASHLSLTASENYPSRFVRTLGAGMQGGFYEFAPPYAANPGEWYFPDSGAQSSLVEKLASLGKQLFEANSFDWRPNGGSAAEQAVLLGTCARGDGFVHFAHKDGGHFALEELAQKVGVSIFHLPIEEKSLLIDVDRLATLIKDNPHIKLVILDQSFKLRWQPLLQIRQALPESVVLSYDASHDGGLIIGECLPQPLLFGADIVHGNTHKTIPGPQKGYIAFKNVDHPAMKHVSDWVCPHLQSNSHAELIAPMYIALVEMSLYGRSYAEQVIKNAKALAHALHAEGVRVSGESFGFTETHQVHVVVGSERKALELVTGTLALAGIRCNNIEIPGANGLFGLRLGVQALTRRGIKEHGMAEVARFLVRLILKNESPTAIRNEIASFLESYPINTLHYSLDAHYYTPSGIKLMEEVIA

How the values were obtained:
[1] = TTA-ADH coupled assay at different L-Thr concentrations (apparent L-Thr KM and kcat); format: biochemical; details: for Km: apparent, phenylacetaldehyde (14) as aldehyde, ADH coupling, non-linear regression; for L-Thr kcat compared with ObiH: phenylacetaldehyde as the aldehyde substrate
Experimental: (§1) High-throughput screening of purified TTAs was performed with a TTA-ADH coupled assay using purified TTA and commercially available alcohol dehydrogenase from S. cerevisiae purchased from MilliporeSigma. Aldehyde stocks were prepared in 50-100 mM solutions in DMSO or acetonitrile. Reaction mixtures were prepared in a 96-well plate with 100 μL of 100 mM phosphate buffer pH 7.5, 0.5 mM NADH, 0.4 mM PLP, 15 mM MgCl2, and 100 mM L-Thr with the addition of 0.25 mM to 1 mM aldehyde depending on the background absorbance at 340 nm (Table 4), 10 U ScADH, and 0.25 μM purified TTA unless otherwise specified. Reactions were initiated with the addition of enzyme. […] The following controls were included for every assay: reaction mixture without aldehyde, without TTA, and without enzyme (TTA or ADH). Rates were calculated by identifying the linear region at the beginning of the kinetic run and converting the depletion in absorbance to the depletion of mM NADH using an NADH standard curve.
We next sought to determine the affinity of these enzymes for L-Thr, which we obtained by performing the TTA-ADH coupled assay at different L-Thr concentrations (FIG. 16b). […] Two differences between our assays were the substrate, phenylacetaldehyde (14) instead of 4-nitrophenylacetylaldehyde (15), and the assay format, ADH coupling rather than a discontinuous HPLC assay. Because a live cellular environment would also contain alcohol dehydrogenases for reduction of acetaldehyde, it is possible that the KM values that we are measuring using the TTA-ADH coupled assay may be more realistic for our envisioned applications.

[2] = literature value; ObiH: 4-nitrophenylacetylaldehyde (15), discontinuous HPLC assay; read-out: reported L-Thr KM; cited from earlier work
[3] = In vitro assay over 20 h with HPLC analysis (amino acid substrate specificity, diastereomeric excess); format: biochemical; details: 3 as aldehyde substrate
Experimental: Metabolites of interest were quantified via high-performance liquid chromatography (HPLC) using an Agilent 1260 Infinity model equipped with a Zorbax Eclipse Plus-C18 column. To quantify aldehyde and β-OH-nsAAs, an initial mobile phase of solvent A/B=95/5 was used (solvent A, water+0.1% TFA; solvent B, acetonitrile+0.1% TFA) and maintained for 5 min. A gradient elution was performed (A/B) as follows: gradient from 95/5 to 50/50 for 5-12 min, gradient from 50/50 to 0/100 for 12-13 min, and gradient from 0/100 to 95/5 for 13-14 min. A flow rate of 1 mL min-1 was maintained, and absorption was monitored at 210, 250 and 280 nm.
We performed an in vitro assay over 20 h using 3 as the aldehyde substrate and either L-Thr, Glycine (Gly), or L-Serine (L-Ser) as the candidate amino acid. Since the TTA-ADH coupled assay is specific to L-Thr, we analyzed TTA activity via HPLC with a chemically synthesized β-OH-nsAA standard for the assumed product from 3.

[4] = TTA-ADH coupled assay, screen of purified TTAs on 2-nitro-benzaldehyde; format: biochemical; details: substrate 3, TTA-ADH coupled assay
Experimental: as §1
Once purified, we identified the putative TTAs with high activity and further characterized them for their L-Thr affinity and substrate scope. We first screened each purified enzyme using the TTA-ADH coupled assay with 2-nitro-benzaldehyde, 3, the best performing substrate from the screen of ObiH that was not a substrate of the ScADH. […] With this evidence as well as well-aligned, predicted AlphaFold structures, we assumed the impact of the SUMO tag would be minimal for all TTAs screened and moved forward with additional enzyme characterization.

[5] = TTA-ADH coupled assay, substrate scope of TTAs on aromatic aldehydes; format: biochemical; details: for activity on a set of aromatic aldehyde substrates (substrate scope): substrates 1, 3, 6, 7, 8, 12, 15
Experimental: as §1
We specifically selected substrates with ring substituents with different electron withdrawing properties (1, 3, 6, 7, 8), substituent size (12), and aldehyde chain length (15) to compare the activity of the putative TTAs to ObiH. We were also encouraged by the activity of PbTTA and KaTTA on vanillin and protocatechualdehyde which are substrates that would form products like commercially available therapeutic, Droxidopa (FIG. 18).
To explore the possibility that DbTTA and TmTTA are TTAs active on other related aldehydes, we sought to examine their activity with L-Thr and aldehyde substrates with different ring substituent position (2), bulkier, hydrophobic chemistry (10), and aldehyde chain length (14) using the TTA-ADH coupled assay.

Molecule | Km [1] [mM] | Km [2] [mM] | L-Thr kcat compared with ObiH [1] | β-OH-nsAA formation using L-Ser or Gly [3] | activity on 2-nitro-benzaldehyde relative to ObiH [4] | activity on vanillin and protocatechualdehyde ([5]; TTA-ADH coupled assay) | activity on a set of aromatic aldehyde substrates (substrate scope) [5]
B1 | 29.5 | 40.2 ± 3.8 | – | – | – | – | –
B2 | – | – | higher measured L-Thr kcat values than ObiH | no β-OH-nsAA formation | comparable to or better than ObiH | – | –
B3 | 19.1 | – | – | no β-OH-nsAA formation | comparable to or better than ObiH | activity | –
B4 | – | – | higher measured L-Thr kcat values than ObiH | no β-OH-nsAA formation | comparable to or better than ObiH | – | relatively selective
B5 | – | – | higher measured L-Thr kcat values than ObiH | no β-OH-nsAA formation | comparable to or better than ObiH | – | relatively selective
